Test [1] has as its target rabbit STEAP1 (Six Transmembrane Epithelial Antigen of Prostate member 1) with residues 2-42 truncated (rabbit). As to the kind of experiment: SEC-MALS. In general terms: Size exclusion chromatography separates by hydrodynamic size, large species first.
Test [2] shares this target. As to the kind of experiment: SEC.
Test [3] deals with rSTEAP1 (Six Transmembrane Epithelial Antigen of Prostate 1) (Oryctolagus cuniculus, UniProt G1SWI4). As to the kind of experiment: fluorescence titration. It counts as binding.
Chain of rSTEAP1 (Six Transmembrane Epithelial Antigen of Prostate 1) (G1SWI4 43-352): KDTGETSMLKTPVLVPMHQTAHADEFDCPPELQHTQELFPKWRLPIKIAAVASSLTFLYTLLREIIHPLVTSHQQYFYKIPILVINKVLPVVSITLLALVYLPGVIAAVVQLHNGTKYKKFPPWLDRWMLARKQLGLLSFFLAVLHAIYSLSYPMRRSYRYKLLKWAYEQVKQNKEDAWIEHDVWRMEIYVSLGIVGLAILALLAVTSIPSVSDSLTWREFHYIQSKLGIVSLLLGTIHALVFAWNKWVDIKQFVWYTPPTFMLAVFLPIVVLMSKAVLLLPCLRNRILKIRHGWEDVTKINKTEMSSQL

From paper PMC7251975 (Biochemistry, 2016) come the findings set out here.

As to “rabbit STEAP1 (Six Transmembrane Epithelial Antigen of Prostate member 1) with residues 2-42 truncated (domain or fragment)”, the stoichiometry N in test [1] and in test [2] was 3 throughout.
As for `Cc1cc2nc3c(=O)[nH]c(=O)nc-3n(C[C@H](O)[C@H](O)[C@H](O)COP(=O)(O)OP(=O)(O)OC[C@H]3O[C@@H](n4cnc5c(N)ncnc54)[C@H](O)[C@@H]3O)c2cc1C` [FAD], the Kd in test [3] is 32.3 ± 1.3 µM.

By stoichiometry N is commonly meant a count of units in the complex or per binding partner. By Kd is commonly meant the equilibrium constant for the complex coming apart. A lower Kd goes with a tighter complex.
